In patent US20150037348A1 (AbbVie / Abbott, published 2015):

T1: recombinant human IL-12 (rhIL-12) (human, UniProt P29459 23-219; P29460 23-328)
T1 sequence (looked up) 1: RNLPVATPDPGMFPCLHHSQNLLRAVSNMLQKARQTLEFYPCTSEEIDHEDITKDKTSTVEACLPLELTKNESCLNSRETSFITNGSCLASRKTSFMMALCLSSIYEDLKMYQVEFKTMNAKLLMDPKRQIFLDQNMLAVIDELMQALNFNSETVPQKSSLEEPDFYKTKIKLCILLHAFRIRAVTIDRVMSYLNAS
T1 sequence (looked up) 2: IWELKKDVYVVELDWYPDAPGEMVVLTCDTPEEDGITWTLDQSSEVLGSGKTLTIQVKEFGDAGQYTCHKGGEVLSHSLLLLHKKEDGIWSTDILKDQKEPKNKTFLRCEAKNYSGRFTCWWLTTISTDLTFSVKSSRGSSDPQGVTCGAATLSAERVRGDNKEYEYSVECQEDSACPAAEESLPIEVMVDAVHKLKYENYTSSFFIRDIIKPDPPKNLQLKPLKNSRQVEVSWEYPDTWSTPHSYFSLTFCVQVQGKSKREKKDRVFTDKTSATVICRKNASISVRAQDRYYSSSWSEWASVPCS


Tests used:
[1] = target: T1, recombinant human IL-12 (rhIL-12); experiment: cell-based or functional assay
[2] = target: T1, recombinant human IL-12 (rhIL-12); experiment: BIAcore SPR, IL-12 on chip
[3] = target: T1, recombinant human IL-12 (rhIL-12); experiment: receptor binding assay, 125I-hIL-12 on PHA blasts
Experimental: PHA blast cells isolated as described above, were washed once and resuspended in binding buffer to a cell density of 2×10⁷ cells/ml. […] The cell pellet was examined for cell bound radioactivity using a gamma counter. […] Incubations were carried out in duplicate.

PHA assay IC50 [1]	koff [2]	IC50 [3]	Binder
400 pM	0.000304 s⁻¹	30 pM	AO3 (scFv, V domains shown, scFv clone; only the CDR3s are tied to it) VH: QVQLVQSGGGVVQPGRSLRLSCAASGFTFSSYGMHWVRQAPGKGLEWVAFIRYDGSNKYYADSVKGRFTISRDNSKNTLYLQMKSLRAEDTAVYYCKTHGSHDNWGQGTMVTVSS VL: SYVLTQPPSVSGTPGQRVTISCSGGRSNIGSNTVKWYQQLPGTAPKLLIYGNDQRPSGVPDRFSGSKSGTSASLAITGVQAEDEADYYCQSYDRGTHPLTMFGTGTKVTVL
10000 pM	0.00107 s⁻¹	350 pM	C6 (scFv, V domains shown, scFv clone) VH: QVQLVQSGGGVVQPGRSLRLSCAASGFTFSSYGMHWVRQAPGKGLEWVAFIRYDGSNKYYADSVKGRFTISRDNSKNTLYLQMKSLRAEDTAVYYCKTHGSHDNWGQGTMVTVSS VL: SYVLTQPPSVSGTPGQRVTISCSGGRSNIGSNTVKWYQQLPGTAPKLLIYGNDQRPSGVPDRFSGSKSGTSASLAITGVQAEDEADYYCQSYDRGQTPSITFGTGTKVTVL
2000 pM	0.000755 s⁻¹	60 pM	Y174 (scFv, V domains shown, scFv clone) VH: QVQLVQSGGGVVQPGRSLRLSCAASGFTFSSYGMHWVRQAPGKGLEWVAFIRYDGSNKYYADSVKGRFTISRDNSKNTLYLQMKSLRAEDTAVYYCKTHGSHDNWGQGTMVTVSS VL: SYVLTQPPSVSGTPGQRVTISCSGGRSNIGSNTVKWYQQLPGTAPKLLIYGNDQRPSGVPDRFSGSKSGTSASLAITGVQAEDEADYYCQSYDRGTTPAPEFGTGTKVTVL
450 pM	0.000592 s⁻¹	30 pM	Y139 (scFv, V domains shown, scFv clone) VH: QVQLVQSGGGVVQPGRSLRLSCAASGFTFSSYGMHWVRQAPGKGLEWVAFIRYDGSNKYYADSVKGRFTISRDNSKNTLYLQMKSLRAEDTAVYYCKTHGSHDNWGQGTMVTVSS VL: SYVLTQPPSVSGTPGQRVTISCSGGRSNIGSNTVKWYQQLPGTAPKLLIYGNDQRPSGVPDRFSGSKSGTSASLAITGVQAEDEADYYCQSYDRGSHPALTFGTGTKVTVL
2600 pM	0.000508 s⁻¹	55 pM	Y38 (scFv, V domains shown, scFv clone) VH: QVQLVQSGGGVVQPGRSLRLSCAASGFTFSSYGMHWVRQAPGKGLEWVAFIRYDGSNKYYADSVKGRFTISRDNSKNTLYLQMKSLRAEDTAVYYCKTHGSHDNWGQGTMVTVSS VL: SYVLTQPPSVSGTPGQRVTISCSGGRSNIGSNTVKWYQQLPGTAPKLLIYGNDQRPSGVPDRFSGSKSGTSASLAITGVQAEDEADYYCQSYDRGTHPSITFGTGTKVTVL
1000 pM	0.000661 s⁻¹	50 pM	Y177 (scFv, V domains shown, scFv clone) VH: QVQLVQSGGGVVQPGRSLRLSCAASGFTFSSYGMHWVRQAPGKGLEWVAFIRYDGSNKYYADSVKGRFTISRDNSKNTLYLQMKSLRAEDTAVYYCKTHGSHDNWGQGTMVTVSS VL: SYVLTQPPSVSGTPGQRVTISCSGGRSNIGSNTVKWYQQLPGTAPKLLIYGNDQRPSGVPDRFSGSKSGTSASLAITGVQAEDEADYYCQSYDRGSHPTLIFGTGTKVTVL
4300 pM	0.000617 s⁻¹	40 pM	Y45 (scFv, V domains shown, scFv clone) VH: QVQLVQSGGGVVQPGRSLRLSCAASGFTFSSYGMHWVRQAPGKGLEWVAFIRYDGSNKYYADSVKGRFTISRDNSKNTLYLQMKSLRAEDTAVYYCKTHGSHDNWGQGTMVTVSS VL: SYVLTQPPSVSGTPGQRVTISCSGGRSNIGSNTVKWYQQLPGTAPKLLIYGNDQRPSGVPDRFSGSKSGTSASLAITGVQAEDEADYYCQSYDRGTDPAIVFGTGTKVTVL
1000 pM	0.000508 s⁻¹	100 pM	G6 (scFv, V domains shown, scFv clone) VH: QVQLVQSGGGVVQPGRSLRLSCAASGFTFSSYGMHWVRQAPGKGLEWVAFIRYDGSNKYYADSVKGRFTISRDNSKNTLYLQMKSLRAEDTAVYYCKTHGSHDNWGQGTMVTVSS VL: SYVLTQPPSVSGTPGQRVTISCSGGRSNIGSNTVKWYQQLPGTAPKLLIYGNDQRPSGVPDRFSGSKSGTSASLAITGVQAEDEADYYCQSYDRGTHPLTIFGTGTKVTVL
